These results are taken from the DeepSol protein solubility set.

The nature of the data set: soluble on expression in E. coli; label from the status in PepcDB or PDB records.
In the case of “MAHHHHHHMKYNEAQMRFYLLCLNMKQANTKEDKSQKISNSSTIDEIEEEQLYTGPLKIEQLLAKGFVKRDLELLKEGGLQTVECVAYAPMRTLCAIKGISEQKAEKLKKACKELCNSGFCNAIDYHDARQNLIKFTTGSKQLDALLKGGIETGGITELFGEFRTGKSQLCHTLAITCQLPIEQSGGEGKCLWIDTEGTFRPERIVAIAKRYGLHPTDCLNNIAYAKAYNCDHQTELLIDASAMMADARFALLIVDSATALYRSEYIGRGELANRQSHLCRFLRGLQRIADIYGVAVIITNQVVAKVDAMSMFGGHEKIPIGGNIIAHASQTRLYLRKGRGESRICKIYDSPVLPEGEAVFAITEGGIADYEEK”, the “soluble on expression in E. coli” value is “not soluble”.

As for “MAHHHHHHMLCHNVASKVSELLLNRMNCPFLQNVQVRNHKIIKPRNIIKLWKINKGDEVKVISGKDKGKIGEVLSCDKFRNMVKVKGCNLRKIYLDNKFVYIEKKIHYSNVQLIDDFLKTNTKVCIRYTDDNQVIRISKKSGIVIPWPSKTNKEDEFDDVEENPLDTPPQEALKKTYDYKADVKFMNILRQTVNKYNRELS”, the “soluble on expression in E. coli” value is “not soluble”.

“MAHHHHHHMLEGPNAEEAKKAILECDGIFVPGGFGKRGVDGKCAAVALARHHNIPYFGVCLGMQVALIQVCREELGWKDANSEEFDPSSTHQIVRIMDCDRHSMGANMHLGARNVHLVEKNSIMSTIYSGADFVVERHRHRYEVNTTYLGQLRGAGVLISGVSDPTFGPHTRVEAIEIPSLRFFLAVQFHPEFVSSPMDPSPPYLAFMAAASKKEYKWPESCAARRVKTL”: the “soluble on expression in E. coli” value was “not soluble”.

On to “MAHHHHHHMLPGDVVEVLVTNSHGTQDADDVERLCKALHLDPCAWCELHRSPFVPEDNFPPWLPLQKPLTLGQLLSAYVDISSSSYLLHQSFFESLFRIYSDSKPSSASSTSTTPSPDPEKVRLLEACASSETGPQLLRLLSKSSTPLCYPSLVDVLEVFSFVNIPLDRLLEVSGPLQTRRYSLANWIPATLPLSPLQLCMREVCARRSANLPAATPVGADAQRVADMLNRAAQDASRDHGNFFFGHTSHPLCCAARSMTRSAAGAGQRGMYVSFSLFGNSLFARQLQAGCTALCNPAQAKSLCSPLFLIGCGTGIAPLIAAVTQLMLRRACTAAGSAPFPCWVFYGARTKAELLYDEVLREALRTGAIAKYEYALSREEDNEKQGRYVTDLVKQNRLMVTDSLRNEGQLFVCGPAKALVSVRQLVKCDLLAEPDDDDSVQEQRLLVLEDRGRLNFDIWSTGNIFE”, for which the “soluble on expression in E. coli” value is reported as “not soluble”.

In the case of “MAHHHHHHMLPHSVPTSPHQERDRPLEQMTDEELRRELVMLIRTNAILAEESAGLQADISALCEESVRFQQSTEIEEDKVTNQLLRRLQSEEVQKHRFHHQILCEEKARRKIMDQITQVRQQMELEKQLEQEQEVQRMELQRKLIDVVNKKIEVERQLLEERRVQLEALTTKLASIKEGSLAAKSKVDGAVGSRGTQGPSASSQQCQSGTANMTHESPAAAAAAAVAASSQPPPVKTETVPSSVDLPASDVAGDDTHGTIIRLEEQLNRLLEQHAAATQASATNESLCTELGRNLETIQQAASVDRARTLKLKEELQETKRRVAVLEQRAAVGTAYAASDDSSDLPTPSVSSLYDDKRRESLLNCHQRYPSSCVPPSCSASEAGEDTRSV”, the “soluble on expression in E. coli” value is recorded as “not soluble”.

As for “MAHHHHHHMLQRLSHRSVLGYHGAPQVAALRCSLRFGTNIGGSYYQESDTAGTHQMNNDIRLGLVIKPQSTLVELWEQALKAWPTRRFLGSKMWVRGKLGYVWATYESINTEVEAMRTLLHSMGVEKGSRVVVISENRYEWVVVHFATMQLGAHFVALPTNVTPSEAQLVVKSTQSKVLFVETKASYAAIKGWIGRVGQLEHAICFEDQVGEGSYAVAISIAADVPEKTLARTDVRAEDTAMIVFTAGTTGPPKGVMLSHKSIVANVSSVYASLGEALTHSDMFMSLCSWCVAGALTTDLYQALCKGACVCIPPEILEGFQDLPLVNPSVIVSVAQPFQRAYANIVDDILNRRSFTKDLTRFVVGRITENRLMFKKPGRTLQAFSHALLGKFKAQFGSELRVAIIIGHQLTKDQSELMADLDVFVVNTYGFMEAGGLVATDVDVPQRLKALPGLEVRVVNEKNEIVAPGDLGEILIEAPNAMQGYFDVHIDPEEAKNSLVEYGSRTFVRSGDYGTLTGGWITVKGNKDVLITLANSKTVNPLEVEAALTKSPFIKQVFIYGNRHPYVVALVVANTKAIAAHLRKVERRDGVPLVNDREKADCIRAELRRVSQDLPPRAHVRRFAFVDEFTLANGFMTVKMGYARQKIEDHYVHYFEALYDETPKFYGFAVDDYDDLF”, the “soluble on expression in E. coli” value is given as “soluble”.

“MAHHHHHHMLQWVVKEVEGPFGNIATIHWAVPEGQDDGESSDNTAESQKLHHKVGQGGKVQPELQHLLEDAEDQLGAVLWNSNSVAMGHLQKHVLQNHDKACHVVELGAGVGCLGIGLAMAGARVVITDMKELVPLMEKNIELNKERILSRSNGKGSCVAMTWRWGPPPLVKQKHNAKRVKINNARQHSSNADVPSAQNERGRSPYLLPSPAFVEMQRLLDHVDLVVLCDALYGNPKSWPQLLYTLSEILAANPRCEVINFCEQRVDDVEGDFLNLLQQENAKLPPPANSAVGPEGNETMEEALLRMRGSYKWSTSTEVVGEGPSDLGMPVRVTRISWVHRSGKWGTGASTASRDVVVDGADLGR”: the “soluble on expression in E. coli” value is “not soluble”.

Regarding “MAHHHHHHMLRIGRTLLAEVTTINSTTASVSGRLIRIRKKSKWIDRRSTRVPHNGKDIWYFGDQPSCALCHIRFRYKQDYEAHKESELHVNRLRWVETMNWWRETGEPAYLKASNEQWEWFEQHVLPTKAQEMGCTLDEARRVYRQAIMTETPTWHRPLQCPTVKQEVQEPRDQRWPASPKW”, the “soluble on expression in E. coli” value was “not soluble”.

Take “MAHHHHHHMLVSERAQPVRLFNCLLLRAHKDDESDGAACALHKNAASTSPTTDPIAAATAVGATRLYFTEGGPSSSLTALQRYLKVEEAHTTCPLLRVLQLAPQAPTGNMQPLVYVELDTPNAVSLSDDAQGRREAVLTTCSGVCTQETMPSRWYHAPVKATLCVFQEFMRAPTTSAASEPAFWAFLESVVRYHARDFYCGAVQVELQCVFVPTFEEKQNTAYSVDVFGDYVNEKEGQAQQSSPAAGKGRTAMKICVKSTEAFEHVMAYLKTQCPLLEADFRSSHLVVYAKWSSQLSAVRDSSHSQPPAADATGAVEQAACFVWLQDDAGGGGRDGVYADAALEALLDELTLAAASISTPSRAAAVLQEEGVSSFFEACCLTHTLKRVIRKHFQAVVLRQRPLFHWVISLPPYARLSRSTTSAAVTAMRFRDNAAVSRAVWGATQMLVHWQQLSNSAHALANEALKQSFGRGSGPSRQIVSAPARVPRQRRAIQQSALYGDTFSGGSALDRQRGKVNVPHLYGADEGHDASISLSSAQRGSVMAASGLFHNLRSIKEDSFNNTSVLDAEDVFGSNPKLTTRVVKRLAQSRTSVHTAQ”: the “soluble on expression in E. coli” value was “not soluble”.

On to “MAHHHHHHMMGHLTLPQLCLNVQHGKYSKKTQRPPTLSQRCVTTLISSRISRKLSPADCPTYTSTLLSAEGSTTENLKYNHRGPTTTFSATASNPIIFPN”, for which the “soluble on expression in E. coli” value was “not soluble”.

With “MAHHHHHHMMRSPFERLYHLNNRRDRDERRNKVFQLSLLERIRDRIVSGSLKEDIARKEERLRKQEEMLTSPNGVFVRLYQNSSPRRSSNAAAEGSDCKSVGEGNRDGRASVNTTGVSSQRASTARSRMSAAESQELCNRLYETAAIVKQKKEAMRKQSVEERQRQQAEELLIARLAGQIQLERSRTRASSKRRPKTPAQLEDEARAALEKLRKEDPEGYEKKVLRGRLLSPAERVMQAERLWKHGYISKAKLEAQKKVLELKKCTFQPTINEFSGSAGVAGSGETRGKGGGGTNDDKHLSAGTDRAQRHRKANRFEELYRKGIQAKVRGETLREERDREARLRILRSRMVSDHHFRRRVELDPLLAERFMKSLVV”, the “soluble on expression in E. coli” value is “not soluble”.

As for “MAHHHHHHMMSMRPTTGMAPPPTGMAFSATGSSHTGPMRPTTTMGGGTTLGRIQAQVQEGTFTSTVYGYIRDHQYEEAVELLATQLEEFPRSRAAASLMAYCYYMMGDYGEAASLYEQLTKICPNIEEYRVYYAQSLYKAGAYAESNRLCTLITSPQNQTTLNKLQAAIAYEQEDIPQTKSFLDQAPETDTDMLVLRACVLSKEGSYEEALEKFKEAQNAVGFSAALTYNMALMYYKMEQYGPALRHLAEIIDRGVEEHPELNIGTNTEGGEARSVGNTQLLRETALIEAFNLKAAIEYASKNMQAAKEALTDMPPRTDAELDPVTLHNTALINMDENPTNAFKKFNFLLQNPPFPPETFQNLLLFYCKYQYYDLAADVLAENPHLAWQYLSQNNQSLYDFLDGLITAQTSPAEAYRKFDILAQKMVQQLRNMTRRIQEADQSQDAAVAKTAVRTYDVTLEEYIPVLMAQANIYWEMENYPMVEQLFRQSADFCSENDVWKQNVAHVFFMQETKFKEAIRYYSPVVEANRENILNCSAIVLANLCVSYIMTAQNEQAEEIMRRIERAEERLTYEDSSKQPLHLCIVNLVIGTLYCSKGNFEFGISRIIKSLEPYDRKIMTDTWFYAKRCFLALAMNLAKHMVSLKDSSFEEILFFFDQADLHGEKIFAFIHPDPSKQDTSPRNTARWEARQLKKLYLTLKE”, the “soluble on expression in E. coli” value is reported as “not soluble”.

For “MAHHHHHHMNEIVINNLNYNYYNGIQRTRIKALQNVNLCFERGMRILVCGKNGAGKSTLLSIIAGKKLIKENEVLIFNKQAFHDTDISNKIGYVGEWWSEEYAMNISIKDFCFNYEYTKRYKNLLKLFELDENKIISNLSKGERKKVQIMVNIIVRKDIYIFDEATESLDLVSRKLLLE”, the “soluble on expression in E. coli” value is listed as “soluble”.

In the case of “MAHHHHHHMNIALSHIKKQRCARLYSISSSNNMENLSVAIKIHKYEQTENAPNITNYGYCSGFIKNLKINDDIYLTGAHGYFNLPNDAIQKNTNFIFIATGTGISPYISFLKKLFAYDKNNLYNRNSNYTGYITIYYGVYNEDSILYLNELEYFQKMYPNNINIHYVFSYKQNSDATSFYVQDEIYKRKTEFLNLFNNYKCELYICGHKSIRYKVMDILKSHDQFDEKKKKRVHVEVY”, the “soluble on expression in E. coli” value was “not soluble”.

As to “MAHHHHHHMPCEGCGLSEAAMQCPTCKKLDMPPSYFCSQACFKEHWADHKLKHTQSALPTIPTMTEAAMNAFNFTGSLRPGRITPRRAVPSHIPRPDYANRADGLSPAEEKDRGAKVRVYNLQSLHDDSKETADIQRVKKVCRLSREVLDIATAAVRPGVTTDEIDRIVHEATIERDMYPSPLNYYNFPKSVCTSVNEVICHGIPDSRGLEEGDIVNIDVSSYLNGFHGDLNETVFVGKPDADSVRLVHAAYESLYAGIKVVKPEALYKHVGDAIEACAVQYGCSVVRAYTGHGVGHLFHTAPTVCHYANNKSLGMMRPGHVFTIEPMINLGTWQDVTWPDNWTSTTRDGKRSAQFEHTMVVTNDGAELFTDWTDGIPTYQKQLEGWNIPLPSPSNGVAH”, the “soluble on expression in E. coli” value is on record as “not soluble”.

Regarding “MAHHHHHHMPDDRRRASRTDDALVAHRPADSASPVERRTRVDPRTHTKSLYQRGRDGSEMYASYYNSNDDPAFQERFNRHSNGNAFVQSAQFTYVSHGGCGGRNHTVVKERQRPVVVEEPDDADRHEASTDSGNNANVHAKHKDKEKRRSSKQDPIVEEPDSEDDYNDADSRAYRRGGKKGEFGSHPDALEFWRDPWGMESIMAEMMQPPLGFGDAFPFTSRRAPAQRRLKSPSVSNESKWQLSPHTRGGVMSSPFTGDLFGTGGPESPFRMMEAMQYHMHQQRAAMFGGVDPFRHFM”, the “soluble on expression in E. coli” value was “not soluble”.

Regarding “MAHHHHHHMPIHQYEGWSYERLRQQRNRAHFLLEDPYRYVTVLLISKPGRPEELKCIDSPCYHAAGPLGEGDIVEIEDLLCLRCPWHRYLVNIENGEEILLRVDPASAQGAGIVGRQAALPTYPMHFTDPSAEGVTVVHGEKVQRVHRAWLEEATGILSIEVAEEAVMRQHPVKSDKPAGNVKNGGICMQIFDIKLRGLDKL”, the “soluble on expression in E. coli” value was “not soluble”.
